Reference: US12144869B2, “Anti-ROR1 antibody conjugates, compositions comprising anti ROR1 antibody conjugates, and methods of making and using anti-ROR1 antibody conjugates” (Sutro Biopharma, Inc., priority 2022, dated 2024)
Substitutions are numbered along the chain they refer to. Read-outs that look alike come from different tables or passages of the source.

B1: 1987-C05 HC w/hSP34 LC3: HC of lead antibody 1987-C05 co-expressed with the LC of anti-CD3 antibody "hSP34-LC3" (antibody, V domains shown)
VH: EVQLVESGGGLVQPGGSLRLSCAASGFNISDYDIHWVRQAPGKGLEWVGGIDPDDGSTDYADSVKGRFTISADTSKNTAYLQMNSLRAEDTAVYYCARDYGVFDYWGQGTLVTVSS
VL: QTVVTQEPSLTVSPGGTVTLTCGSSTGAVTSGYYPNWFQQKPGQAPRGLIGGTKFLAPGTPARFSGSLLGGKAALTLSGVQPEDEAEYYCALWYSNRWVFGGGTQLTVTG
B2: 1987-C05 HC w/hUCHT1 LC3: HC of lead antibody 1987-C05 co-expressed with the LC of anti-CD3 antibody "hUCHT1-LC3" (antibody, V domains shown)
VH: B1 VH
VL: DIQMTQSPSTLSASVGDRVTITCRASQDIRNYLNWYQQKPGKAPKLLIYYTSRLHSGVPSRFSGSGSGTEYTLTISSLQPDDFATYYCQQGNTLPWTFGGGTKVEIK
B3: 1987-C05 HC w/hOKT3 LC1: HC of lead antibody 1987-C05 co-expressed with the LC of anti-CD3 antibody "hOKT3-LC1" (antibody, V domains shown)
VH: B1 VH
VL: DIQMTQSPSSLSASVGDRVTITCSASSSVSYMNWYQQKPGKAPKRLIYDTSKLASGVPSRFSGSGSGTEYTLTISSLQPEDFATYYCQQWSSNPFTFGQGTKLEIK
B4: SRP2196-C02 (antibody, V domains shown)
VH: EVQLVESGGGLVQPGGSLRLSCAASGFNITGYHIHWVRQAPGKGLEWVGFISPNSGWTYSADSVKGRFTISADTSKNTAYLQMNSLRAEDTAVYYCARDSRRYVRPFDYWGQGTLVTVSS
VL: QAVVTQESALTTSPGETVTLTCRSSTGAVTTSNYANWVQEKPDHLFTGLIGGTNKRAPGVPARFSGSLIGDKAALTITGAQTEDEAIYFCALWYSNLWVFGGGTKLTVL
B5: SRP2196-A03 (antibody, V domains shown)
VH: B4 VH with G31Q, F50Y, W57S, Y59H, S60E, P106G, F107W
VL: B4 VL
B6: SRP2196-C03 (antibody, V domains shown)
VH: B4 VH with H33Y, F50Q, W57S, N84S, R105L, P106S, F107W
VL: B4 VL
B7: SRP2196-C04 (antibody, V domains shown)
VH: B4 VH with H33Y, S52A, N54L, W57S, Y59H, S60N, D99E, R105N, F107W
VL: B4 VL

What was measured:
[1] = system: ROR1 positive Ntera-2 cell; assay: In vitro cell killing of ROR1 ADCs on Ntera-2; type: cell-based; settings: for EC50: read-out: NTERA-2 EC50
Experimental: (§1) Anti-ROR1 antibody was conjugated to different linker-warheads described herein at different DARs and the cell killing activity of the ADCs were evaluated on ROR1 positive Ntera-2 cell and ROR1 negative MCF7 cells.
(§2) Ntera-2 or MCF7 cell at 625 cells/25 μL were seeded in a 384-well flat bottom white polystyrene plate one day before the assay start. ADCs were formulated at 2× starting concentration. Filter sterilized samples were serial diluted (1:3) under sterile conditions and added onto cells in triplicates. Plates were cultured at 37° C. in a CO2 incubator for 120 hours. For cell viability measurement, 30 microliter of Cell Titer-Glo® reagent (Promega Corp, Madison, WI) was added into each well, and plates processed as per product instructions. Relative luminescence was measured on an ENVISION® plate reader (Perkin-Elmer; Waltham, MA). Relative luminescence readings were converted to % viability using untreated cells as controls. Data was fitted with non-linear regression analysis, using log (inhibitor) vs. response, variable slope, 4-parameter fit equation using GraphPad Prism.
To evaluate if the cell killing activity of anti-ROR1 ADCs is dependent on antibody binding to ROR1 expressed on cell surface, the same linker-warheads (LP3, LP4) were conjugated to an anti-GFP antibody and the cell killing of the anti-ROR1 and anti-GFP ADCs were evaluated in cell killing assays on ROR1 positive Ntera-2 cell and ROR1 negative MCF7 cells. […]

ROR1 negative MCF7 cells = assay: In vitro cell killing of ROR1 ADCs on MCF7; type: cell-based; settings: for EC50: read-out: MCF-7 EC50
Experimental: as §1, §2
To evaluate if the cell killing activity of anti-ROR1 ADCs is dependent on antibody binding to ROR1 expressed on cell surface, the same linker-warheads (LP3, LP4) were conjugated to an anti-GFP antibody and the cell killing of the anti-ROR1 and anti-GFP ADCs were evaluated in cell killing assays on ROR1 positive Ntera-2 cell and ROR1 negative MCF7 cells.

[2] = biological target: T1, hROR1 (ROR1-extracellular domain) (Homo sapiens, UniProt Q01973); assay: Biacore off-rate and kinetic analysis, hROR1 extracellular domain; type: binding; settings: for KD (SPR binding kinetics): hROR1, 1987-C05 variants
T1 construct: the ROR1-frizzled domain (hROR1-Fz) or the ROR1-extracellular domain (hROR1); purchased Acro Biosystems
Experimental: (§3) Anti-Fc polyclonal antibodies were immobilized onto a CMS chip (GE Life Sciences) using amine coupling chemistry (from Amine Coupling Kit, GE Life Sciences). The immobilization steps were carried out at a flow rate of 25 μL/min in 1×HBS-EP+buffer (GE Life Sciences; 10× Stock diluted before use). The sensor surfaces were activated for 7 min with a mixture of NHS (0.05 M) and EDC (0.2 M). The Anti-Fc antibodies were injected over all 4 flow cells at a concentration of 25 ug/ml in 10 mM sodium acetate, pH 4.5, for 7 min. Ethanolamine (1 M, pH 8.5) was injected for 7 min to block any remaining activated groups. An average of 12,000 response units (RU) of capture antibody was immobilized on each flow cell.
(§4) Off-rate and kinetic binding experiments were performed at 25° C. using 1×HBS-EP+buffer. Test and control antibodies were injected over the anti-Fc surface at concentrations of 5-10 μg/mL for 12 seconds at a flow rate of 10 μL/min on flow cells 2, 3 and 4, followed by a buffer wash for 30 seconds at the same flow rate. Kinetic characterization of antibody samples was carried out with a range of antigen concentrations from 1-100 nM and 1 injection of 0 nM antigen (for example, 100, 50, 25, 6.25, 1.56 and 0 nM). After capturing ligand (antibody) on the anti-Fc surface, the analyte (hROR1, Fz or Kr domains, Acro Biosystems, Delaware) was bound for 180 seconds, followed by a 600 second dissociation phase at a flow rate of 50 μL/min. Between each ligand capture and analyte binding cycle, regeneration was carried out using 2 injections of 10 mM Glycine pH 2.0 for 30 seconds at 30 μL/min, followed by a 30 second buffer wash step.
(§5) The data was fit with the Biacore T200 Evaluation software, using a 1-1 Langmuir binding model. KD (affinity, nM) was determined as a ratio of the kinetic rate constants calculated from the fits of the association and dissociation phases.
(§6) For anti-CD3-LC-containing IgGs that had detectable ROR1-binding in ELISA (1944-A07 and 1987-C05 variants), those antibodies were further tested for binding by surface plasmon resonance (SPR). Binding kinetics were assessed to the ROR1-frizzled domain (hROR1-Fz) or the ROR1-extracellular domain (hROR1) for 1944-A07 and 1987-C05 variants, respectively. Briefly, anti-ROR1 antibodies were captured via anti-human Fc polyclonal antibodies immobilized to a CM5 chip, and ROR1 recombinant proteins were flowed across the surface to assess binding kinetics. hROR1 or hROR1-Fz domain (Acro Biosystems, Delaware) binding was tested at 100, 50, 25, 6.25, 1.5625 nM. The data was fit with the Biacore™ T200 Evaluation software, using a 1-1 Langmuir binding model. KD (affinity, nM) was determined as a ratio of the kinetic rate constants calculated from the fits of the association and dissociation phases.

[3] = Differential scanning fluorimetry (protein thermal shift; TM1/TM2); type: physicochemical; settings: Table 11; melting temperature of the Fab domain
Experimental: A protein thermal shift assay was carried out by mixing the protein to be assayed with an environmentally sensitive dye (SYPRO Orange, Life Technologies Cat #S-6650) in a phosphate buffered solution (PBS), and monitoring the fluorescence of the mixture in real time as it underwent controlled thermal denaturation. Protein solutions between 0.2-2 mg/mL were mixed at a 1-1 volumetric ratio with a 1-500 PBS-diluted solution of SYPRO Orange (SYPRO Orange stock dye is 5000× in DMSO). 10 μL aliquots of the protein-dye mixture were dispensed in quadruplicate in a 384-well microplate (Bio-Rad Cat #MSP-3852), and the plate was sealed with an optically clear sealing film (Bio-Rad Cat #MSB-1001) and placed in a 384-well plate real-time thermocycler (Bio-Rad CFX384 Real Time System). The protein-dye mixture was heated from […], at increments of 0.1° C. per cycle (˜1.5° C. per minute), allowing 3 seconds of equilibration at each temperature before taking a fluorescence measurement. At the end of the experiment, the transition melting temperatures (TM1 and TM2) were determined using the Bio-Rad CFX manager software. TM1 represents the melting temperature of the Fc domain. TM2 represents the melting temperature of the Fab domain.
For the thermal stability of an antibody, the first melting peak (Tm1) coincides with the unfolding of the CH2 domain (FC stability), while the second melting peak (Tm2) occurs upon unfolding of the Fab domain.

human ROR1-Fz = biological target: T2, human ROR1-Fz (Homo sapiens, UniProt Q01973); assay: Biacore off-rate and kinetic analysis, ROR1-Fz; type: binding; settings: Table 11; SP34 light chain
T2 construct: Frizzled (Fz, residues 165-305); His6 (C); purchased Acro Biosystems; host or cells: HEK293
Experimental: as §3, §4, §5, §6

[4] = Table 13, ROR1 positive Ntera-2, 120 hours
[5] = Table 13, ROR1 negative MCF7, 120 hours
[6] = NTERA2, Table 13, ROR1 positive Ntera-2, 120 hours
[7] = Homo sapiens, Table 13, ROR1 negative MCF7, 120 hours
[8] = Table 7, sample ROR1 ECD, 1987-C05 HC with different LCs

Row | Molecule | NTERA-2 Span [1, 4] | MCF-7 Span (ROR1 negative MCF7 cells; [5]) | TM2 (° C.) [3] | Biacore human ROR1-Fz ka (human ROR1-Fz) | Biacore human ROR1-Fz kd (human ROR1-Fz) | also measured
1 | CC[C@@]1(O)C(=O)OCc2c1cc1n(c2=O)Cc2c-1nc1cc(F)c(C)c3c1c2[C@@H](NC(=O)CO)CC3 [Dxd] | 99% | 63% |  |  |  | EC50 [1, 4]: 0.26 nM; EC50 (ROR1 negative MCF7 cells; [5]): 0.83 nM
2 | CC[C@@]1(O)C(=O)OCc2c1cc1n(c2=O)Cc2c-1nc1cc(F)c(C)c3c1c2[C@@H](NC(=O)CN)CC3 [Gly-Exatecan] | 98% | 73% |  |  |  | EC50 [1, 6]: 6.72 nM; EC50 (ROR1 negative MCF7 cells; [7]): 0.169 nM
3 | COc1cccc2c1C(=O)c1c(O)c3c(c(O)c1C2=O)C[C@@](O)(C(=O)NCCN)C[C@@H]3O[C@H]1C[C@H]2[C@H](O[C@@H]3[C@@H](OC)OCCN32)[C@H](C)O1 [PNU-EDA] | 99% | 85% |  |  |  | EC50 [1, 6]: 0.026 nM; EC50 ([1]; NTERA2, Table 15, ROR1 positive Ntera-2 cells, 120 hours, Cell Titer-Glo): 0.027 nM; NTERA-2 Span (%) ([1]; Table 15, ROR1 positive Ntera-2 cells, 120 hours, Cell Titer-Glo): 98%; EC50 (ROR1 negative MCF7 cells; [7]): 0.3 nM; EC50 (ROR1 negative MCF7 cells; Homo sapiens, Table 15, ROR1 negative MCF7 cells, 120 hours, Cell Titer-Glo): 0.25 nM; MCF-7 Span (%) (ROR1 negative MCF7 cells; Table 15, ROR1 negative MCF7 cells, 120 hours, Cell Titer-Glo): 85%
4 | B1 |  |  |  |  |  | KD [2, 8]: Not detected; KD (SPR binding kinetics) [2]: no detectable binding
5 | B2 |  |  |  |  |  | ka1 [2, 8]: 566000 M⁻¹ s⁻¹; kd1 [2, 8]: 0.000645 s⁻¹
6 | B3 |  |  |  |  |  | KD [2, 8]: Not detected; KD (SPR binding kinetics) [2]: no detectable binding
7 | B4 |  |  | 67 °C | 119000 M⁻¹ s⁻¹ | 0.00036 s⁻¹ | 
8 | B5 |  |  | 70 °C | 169000 M⁻¹ s⁻¹ | 0.000275 s⁻¹ | 
9 | B6 |  |  | 69 °C | 143000 M⁻¹ s⁻¹ | 0.000461 s⁻¹ | 
10 | B7 |  |  | 70 °C | 131000 M⁻¹ s⁻¹ | 0.000704 s⁻¹ | 
